Molecular target: microtubules (MTs) of porcine brain Tubulin (porcine) (UniProt P02550)
Experiment: turbidimetry

Sequence of LEM2 N-terminal domain (LEM2NTD; AA:1–208) (Q8NC56 1-208): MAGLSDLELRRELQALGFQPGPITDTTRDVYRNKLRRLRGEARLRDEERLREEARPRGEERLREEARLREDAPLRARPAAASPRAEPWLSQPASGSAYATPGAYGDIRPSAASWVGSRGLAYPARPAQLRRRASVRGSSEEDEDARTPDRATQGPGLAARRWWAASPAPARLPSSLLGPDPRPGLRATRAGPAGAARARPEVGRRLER

Substance	half max (half-maximal concentration of MT bundling by light scattering) [µM]	K (apparent) (half-maximal concentration of MT bundling by light scattering) [µM]
LEM2_(Mim1(S82D, S90D, S96D, Y98D, T100D, Y104D)) (from UniProt Q8NC56 1-208) (domain or fragment)	2.82	–
LEM2 N-terminal domain (LEM2NTD; AA:1–208) (from UniProt Q8NC56 1-208) (domain or fragment)	–	1.3
LEM2_(Mim2(Y122D, S134D, S138D, S139D, T147D, S166D, S174D, S175D)) (from UniProt Q8NC56 1-208) (domain or fragment)	8.44	–

— PMC7321842
